The results in this text go back to paper PMC11024467 (2024).

B1: IL-2Rαβγ complex (complex)
chain 1: ELCDDDPPEIPHATFKAMAYKEGTMLNCECKRGFRRIKSGSLYMLCTGNSSHSSWDNQCQCTSSATRNTTKQVTPQPEEQKERKTTEMQSPMQPVDQASLPGHCREPPPWENEATERIYHFVVGQMVYYQCVQGYRALHRGPAESVCKMTHGKTRWTQPQLICTGEMETSQFPGEEKPQASPEGRPESETSCLVTTTDFQIQTEMAATMETSIFTTEYQVAVAGCVFLLISVLLLSGLTWQRRQRKSRRTI
chain 2: AVNGTSQFTCFYNSRANISCVWSQDGALQDTSCQVHAWPDRRRWNQTCELLPVSQASWACNLILGAPDSQKLTTVDIVTLRVLCREGVRWRVMAIQDFKPFENLRLMAPISLQVVHVETHRCNISWEISQASHYFERHLEFEARTLSPGHTWEEAPLLTLKQKQEWICLETLTPDTQYEFQVRVKPLQGEFTTWSPWSQPLAFRTKPAALGKDTIPWLGHLLVGLSGAFGFIILVYLLINCRNTGPWLKKVLKCNTPDPSKFFSQLSSEHGGDVQKWLSSPFPSSSFSPGGLAPEISPLEVLERDKVTQLLLQQDKVPEPASLSSNHSLTSCFTNQGYFFFHLPDALEIEACQVYFTYDPYSEEDPDEGVAGAPTGSSPQPLQPLSGEDDAYCTFPSRDDLLLFSPSLLGGPSPPSTAPGGSGAGEERMPPSLQERVPRDWDPQPLGPPTPGVPDLVDFQPPPELVLREAGEEVPDAGPREGVSFPWSRPPGQGEFRALNARLPLNTDAYLSLQELQGQDPTHLV
chain 3: LNTTILTPNGNEDTTADFFLTTMPTDSLSVSTLPLPEVQCFVFNVEYMNCTWNSSSEPQPTNLTLHYWYKNSDNDKVQKCSHYLFSEEITSGCQLQKKEIHLYQTFVVQLQDPREPRRQATQMLKLQNLVIPWAPENLTLHKLSESQLELNWNNRFLNHCLEHLVQYRTDWDHSWTEQSVDYRHKFSLPSVDGQKRYTFRVRSRFNPLCGSAQHWSEWSHPIHWGSNTSKENPFLFALEAVVISVGSMGLIISLLCVYFWLERTMPRIPTLKNLEDLVTEYHGNFSAWSGVSKGLAESLQPDYSERLCLVSEIPPKGGALGEGPGASPCNQHSPYWAPPCYTLKPET
B2: IL-2Rβγ complex (complex)
chain 1: AVNGTSQFTCFYNSRANISCVWSQDGALQDTSCQVHAWPDRRRWNQTCELLPVSQASWACNLILGAPDSQKLTTVDIVTLRVLCREGVRWRVMAIQDFKPFENLRLMAPISLQVVHVETHRCNISWEISQASHYFERHLEFEARTLSPGHTWEEAPLLTLKQKQEWICLETLTPDTQYEFQVRVKPLQGEFTTWSPWSQPLAFRTKPAALGKDTIPWLGHLLVGLSGAFGFIILVYLLINCRNTGPWLKKVLKCNTPDPSKFFSQLSSEHGGDVQKWLSSPFPSSSFSPGGLAPEISPLEVLERDKVTQLLLQQDKVPEPASLSSNHSLTSCFTNQGYFFFHLPDALEIEACQVYFTYDPYSEEDPDEGVAGAPTGSSPQPLQPLSGEDDAYCTFPSRDDLLLFSPSLLGGPSPPSTAPGGSGAGEERMPPSLQERVPRDWDPQPLGPPTPGVPDLVDFQPPPELVLREAGEEVPDAGPREGVSFPWSRPPGQGEFRALNARLPLNTDAYLSLQELQGQDPTHLV
chain 2: LNTTILTPNGNEDTTADFFLTTMPTDSLSVSTLPLPEVQCFVFNVEYMNCTWNSSSEPQPTNLTLHYWYKNSDNDKVQKCSHYLFSEEITSGCQLQKKEIHLYQTFVVQLQDPREPRRQATQMLKLQNLVIPWAPENLTLHKLSESQLELNWNNRFLNHCLEHLVQYRTDWDHSWTEQSVDYRHKFSLPSVDGQKRYTFRVRSRFNPLCGSAQHWSEWSHPIHWGSNTSKENPFLFALEAVVISVGSMGLIISLLCVYFWLERTMPRIPTLKNLEDLVTEYHGNFSAWSGVSKGLAESLQPDYSERLCLVSEIPPKGGALGEGPGASPCNQHSPYWAPPCYTLKPET
B3: IL-2Rαβγ complex (complex)
chain 1: ELCDDDPPEIPHATFKAMAYKEGTMLNCECKRGFRRIKSGSLYMLCTGNSSHSSWDNQCQCTSSATRNTTKQVTPQPEEQKERKTTEMQSPMQPVDQASLPGHCREPPPWENEATERIYHFVVGQMVYYQCVQGYRALHRGPAESVCKMTHGKTRWTQPQLICTGEMETSQFPGEEKPQASPEGRPESETSCLVTTTDFQIQTEMAATMETSIFTTEYQ
chain 2: AVNGTSQFTCFYNSRANISCVWSQDGALQDTSCQVHAWPDRRRWNQTCELLPVSQASWACNLILGAPDSQKLTTVDIVTLRVLCREGVRWRVMAIQDFKPFENLRLMAPISLQVVHVETHRCNISWEISQASHYFERHLEFEARTLSPGHTWEEAPLLTLKQKQEWICLETLTPDTQYEFQVRVKPLQGEFTTWSPWSQPLAFRTKPAALGKDT
chain 3: LNTTILTPNGNEDTTADFFLTTMPTDSLSVSTLPLPEVQCFVFNVEYMNCTWNSSSEPQPTNLTLHYWYKNSDNDKVQKCSHYLFSEEITSGCQLQKKEIHLYQTFVVQLQDPREPRRQATQMLKLQNLVIPWAPENLTLHKLSESQLELNWNNRFLNHCLEHLVQYRTDWDHSWTEQSVDYRHKFSLPSVDGQKRYTFRVRSRFNPLCGSAQHWSEWSHPIHWGSNTSKENPFLFALEA
B4: IL-2Rβ (receptor)
chain: AVNGTSQFTCFYNSRANISCVWSQDGALQDTSCQVHAWPDRRRWNQTCELLPVSQASWACNLILGAPDSQKLTTVDIVTLRVLCREGVRWRVMAIQDFKPFENLRLMAPISLQVVHVETHRCNISWEISQASHYFERHLEFEARTLSPGHTWEEAPLLTLKQKQEWICLETLTPDTQYEFQVRVKPLQGEFTTWSPWSQPLAFRTKPAALGKDT
B5: IL-2Rα (receptor)
chain: ELCDDDPPEIPHATFKAMAYKEGTMLNCECKRGFRRIKSGSLYMLCTGNSSHSSWDNQCQCTSSATRNTTKQVTPQPEEQKERKTTEMQSPMQPVDQASLPGHCREPPPWENEATERIYHFVVGQMVYYQCVQGYRALHRGPAESVCKMTHGKTRWTQPQLICTGEMETSQFPGEEKPQASPEGRPESETSCLVTTTDFQIQTEMAATMETSIFTTEYQ
B6: IL-2Rβγ complex (complex)
chain 1: AVNGTSQFTCFYNSRANISCVWSQDGALQDTSCQVHAWPDRRRWNQTCELLPVSQASWACNLILGAPDSQKLTTVDIVTLRVLCREGVRWRVMAIQDFKPFENLRLMAPISLQVVHVETHRCNISWEISQASHYFERHLEFEARTLSPGHTWEEAPLLTLKQKQEWICLETLTPDTQYEFQVRVKPLQGEFTTWSPWSQPLAFRTKPAALGKDT
chain 2: LNTTILTPNGNEDTTADFFLTTMPTDSLSVSTLPLPEVQCFVFNVEYMNCTWNSSSEPQPTNLTLHYWYKNSDNDKVQKCSHYLFSEEITSGCQLQKKEIHLYQTFVVQLQDPREPRRQATQMLKLQNLVIPWAPENLTLHKLSESQLELNWNNRFLNHCLEHLVQYRTDWDHSWTEQSVDYRHKFSLPSVDGQKRYTFRVRSRFNPLCGSAQHWSEWSHPIHWGSNTSKENPFLFALEA

The target in one experiment is IL-2 variant 012. Briefly: SPR.
B1 displayed a Kd of 0.575 nM.

B2: the Kd stood at 0.467 nM.

A further experiment has as its target Wild type IL-2 (de-alanine-1, C58S, C125S) (UniProt P60568 21-153, de-alanine-1 | C58S | C125S). The experiment can be described thus: SPR.
In turn, B3 registered a Kd of 0.0423 nM.

For the molecule B4, the affinity, expressed as Kd, was 89.1 nM.

Molecule B5 registered a dissociation constant Kd of 47.5 nM.

In the case of B6, binding was characterised by a dissociation constant (Kd) of 0.463 nM. Compared with the last molecule, the Kd is about 100-fold lower.
